Data published in paper PMC11555649, “Yop1 stability and membrane curvature generation propensity are controlled by its oligomerisation interface” (Biochemical Journal, 2024).
Positions count from the first letter of the chain named. Names may count otherwise.

B1: Yop1 (wildtype, full length, Saccharomyces cerevisiae) (natural protein, UniProt Q12402 1-180, looked up)
chain: MSEYASSIHSQMKQFDTKYSGNRILQQLENKTNLPKSYLVAGLGFAYLLLIFINVGGVGEILSNFAGFVLPAYLSLVALKTPTSTDDTQLLTYWIVFSFLSVIEFWSKAILYLIPFYWFLKTVFLIYIALPQTGGARMIYQKIVAPLTDRYILRDVSKTEKDEIRASVNEASKATGASVH
notes: Yop1, Saccharomyces cerevisiae, UniProt Q12402, full length gene in pCold I; Integral membrane protein, kept in DDM detergent micelles; tags removed with TEV protease; also called WT; wildtype Yop1; source: E. coli C43, purified (Strep-Tactin, TEV cleavage, His-tag resin flow-through, SEC) in DDM; not shown: (His)9, N-terminal, cleaved; Twin-Strep-tag, N-terminal, cleaved
B2: Yop1 P71L variant (natural protein, Saccharomyces cerevisiae, UniProt Q12402 1-180, looked up)
chain: B1 chain with P71L
notes: Yop1, Saccharomyces cerevisiae, UniProt Q12402, full length gene in pCold I, with P71L; Homologous to the REEP1 SPG31 mutation P19L; prone to aggregation in preparative SEC; source: E. coli C43, purified (Strep-Tactin, TEV cleavage, His-tag resin flow-through, SEC) in DDM; not shown: (His)9, N-terminal, cleaved; Twin-Strep-tag, N-terminal, cleaved
B3: Yop1 A72E variant (natural protein, Saccharomyces cerevisiae, UniProt Q12402 1-180, looked up)
chain: B1 chain with A72E
notes: Yop1, Saccharomyces cerevisiae, UniProt Q12402, full length gene in pCold I, with A72E; Homologous to the REEP1 SPG31 mutation A20E; source: E. coli C43, purified (Strep-Tactin, TEV cleavage, His-tag resin flow-through, SEC) in DDM; not shown: (His)9, N-terminal, cleaved; Twin-Strep-tag, N-terminal, cleaved
B4: Yop1 S75F variant (natural protein, Saccharomyces cerevisiae, UniProt Q12402 1-180, looked up)
chain: B1 chain with S75F
notes: Yop1, Saccharomyces cerevisiae, UniProt Q12402, full length gene in pCold I, with S75F; Homologous to the REEP1 SPG31 mutation S23F; source: E. coli C43, purified (Strep-Tactin, TEV cleavage, His-tag resin flow-through, SEC) in DDM; not shown: (His)9, N-terminal, cleaved; Twin-Strep-tag, N-terminal, cleaved

Experiments:
[1] = molecular target: the molecule itself; test: SEC-MALS; self-association; 100 µl at 1-1.4 mg/ml on Superdex 200 10/300GL; 20 mM HEPES pH 7.5, 150 mM NaCl, 5% glycerol; protein in DDM micelles, protein and detergent masses separated
[2] = molecular target: the molecule itself; test: native gel or EMSA; Blue native PAGE, NativePAGE 4-16% Bis-Tris gel, ~0.8 mg/ml protein in DDM micelles, 150 V, 4°C; self-association

Protein | stoichiometry N [1] | stoichiometry N [2]
B1 | 2 | –
B2 | – | 2
B3 | 2 | –
B4 | – | 2
